In US20190248877A1 (Hoffmann-La Roche, published 2019):

Legend:
Experiment in all cases: SPR Biacore T200, biotinylated TnC on SA chip, Fab as analyte, 1:1 fit
[1] = molecular target: T1, muTNC (recombinant murine TnC antigen) (mouse, biotin on the C-terminal avi-tag where used biotinylated (Example 5))
T1 construct: GST may have been cleaved off by thrombin; The text says this construct lacks the C domain; also called mouse TnC
T1 chain: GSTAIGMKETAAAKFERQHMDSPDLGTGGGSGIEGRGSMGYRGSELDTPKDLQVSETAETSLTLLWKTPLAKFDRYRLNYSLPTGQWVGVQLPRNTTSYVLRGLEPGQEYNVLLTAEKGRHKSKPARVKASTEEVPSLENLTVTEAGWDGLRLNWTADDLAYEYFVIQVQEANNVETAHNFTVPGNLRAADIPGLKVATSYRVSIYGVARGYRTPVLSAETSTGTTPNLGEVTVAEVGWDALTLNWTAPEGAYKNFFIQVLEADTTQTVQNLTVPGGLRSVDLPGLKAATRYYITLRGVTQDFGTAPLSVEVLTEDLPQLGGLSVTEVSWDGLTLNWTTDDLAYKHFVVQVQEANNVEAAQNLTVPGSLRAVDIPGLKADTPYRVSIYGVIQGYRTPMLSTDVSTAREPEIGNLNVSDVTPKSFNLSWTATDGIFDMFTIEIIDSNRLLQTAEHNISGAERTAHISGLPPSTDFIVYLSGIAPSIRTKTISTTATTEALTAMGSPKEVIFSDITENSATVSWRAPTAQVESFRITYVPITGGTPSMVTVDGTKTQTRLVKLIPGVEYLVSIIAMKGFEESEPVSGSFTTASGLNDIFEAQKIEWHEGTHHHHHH
Procedure: (§1) Binding of the anti-TnC IgGs 18D4, 11C7 and the Fab fragment of anti-TnC 18D4 to human, murine and cynomolgus TnC (antigens according to Table 4) was assessed by surface plasmon resonance (SPR). All SPR experiments were performed on a Biacore T200 at 25° C. with HBS-EP as running buffer (0.01 M HEPES pH 7.4, 0.15 M NaCl, 3 mM EDTA, 0.005% Surfactant P20, Biacore, Freiburg/Germany).
(§2) A 20 μg/ml stock solution of biotinylated human, murine or cynomolgus TnC was injected on a SA chip, with the aim to immobilize up to 100 RU using the immobilization wizard function.
(§3) An additional dissociation step of 1800s was performed for the highest concentration of IgG. After each step the surface was regenerated following two sequential injections of 10 mM glycine pH2.1 for 60 s. Bulk refractive index differences were corrected for by subtracting the response obtained in a reference flow cell without TNC. Affinity and avidity were calculated using the Langmuir 1:1 kinetic model. However, as the KD for the 1:1 fitting of bivalent interactions is an apparent value only, it should only be used for comparisons.

[2] = molecular target: T2, huTNC (recombinant human TnC antigen) (human, UniProt P24821 984-1798, biotin on the C-terminal avi-tag where used biotinylated (Examples 5 and 10))
T2 sequence: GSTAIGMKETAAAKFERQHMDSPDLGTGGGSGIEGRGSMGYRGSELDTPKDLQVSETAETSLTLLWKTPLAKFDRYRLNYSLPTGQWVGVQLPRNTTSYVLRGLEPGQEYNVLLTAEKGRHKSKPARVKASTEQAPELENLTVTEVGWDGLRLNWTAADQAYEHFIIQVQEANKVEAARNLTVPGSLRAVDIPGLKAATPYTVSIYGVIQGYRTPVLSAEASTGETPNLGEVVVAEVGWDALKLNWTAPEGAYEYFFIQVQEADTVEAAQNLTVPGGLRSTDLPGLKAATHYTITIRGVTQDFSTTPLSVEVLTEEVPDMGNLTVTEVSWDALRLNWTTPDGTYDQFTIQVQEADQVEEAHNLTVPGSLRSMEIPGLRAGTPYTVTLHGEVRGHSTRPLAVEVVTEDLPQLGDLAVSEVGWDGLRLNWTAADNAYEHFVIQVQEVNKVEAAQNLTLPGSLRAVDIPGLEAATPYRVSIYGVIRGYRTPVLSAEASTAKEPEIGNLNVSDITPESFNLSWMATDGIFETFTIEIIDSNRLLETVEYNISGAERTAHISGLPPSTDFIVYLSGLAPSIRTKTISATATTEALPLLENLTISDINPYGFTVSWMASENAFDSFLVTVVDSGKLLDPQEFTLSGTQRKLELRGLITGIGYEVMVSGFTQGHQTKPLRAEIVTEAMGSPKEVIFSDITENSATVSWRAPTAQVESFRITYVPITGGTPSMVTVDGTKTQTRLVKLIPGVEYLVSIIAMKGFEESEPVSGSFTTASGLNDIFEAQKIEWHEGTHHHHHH
Procedure: as §1, §2, §3

[3] = molecular target: T3, cynoTNC (recombinant cynomolgus TnC antigen) (cynomolgus, biotin on the C-terminal avi-tag where used biotinylated (Example 5))
T3 construct: GST may have been cleaved off by thrombin; The text says this construct lacks the C domain
T3 chain: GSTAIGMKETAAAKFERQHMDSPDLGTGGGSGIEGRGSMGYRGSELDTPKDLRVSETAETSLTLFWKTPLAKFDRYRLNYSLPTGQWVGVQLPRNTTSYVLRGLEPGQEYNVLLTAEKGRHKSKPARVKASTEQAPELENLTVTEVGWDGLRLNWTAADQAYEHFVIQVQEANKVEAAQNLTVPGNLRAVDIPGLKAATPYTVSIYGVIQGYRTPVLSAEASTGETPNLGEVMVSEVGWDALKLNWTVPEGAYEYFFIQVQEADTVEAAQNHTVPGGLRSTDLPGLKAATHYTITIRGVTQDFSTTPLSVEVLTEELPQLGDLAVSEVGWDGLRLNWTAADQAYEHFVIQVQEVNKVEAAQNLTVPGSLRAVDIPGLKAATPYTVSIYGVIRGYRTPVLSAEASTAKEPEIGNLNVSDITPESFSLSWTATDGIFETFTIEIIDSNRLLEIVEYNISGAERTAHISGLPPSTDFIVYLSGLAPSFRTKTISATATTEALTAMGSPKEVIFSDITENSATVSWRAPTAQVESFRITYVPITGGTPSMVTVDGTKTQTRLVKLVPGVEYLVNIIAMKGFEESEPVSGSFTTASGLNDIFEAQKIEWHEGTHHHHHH
Procedure: as §1, §2, §3

B1: anti-TnC clone 18D4 Fab fragment (Fab, V domains shown)
VH: QVQLVQSGAEVKKPGSSVKVSCKASGGTFSSYAISWVRQAPGQGLEWMGGIIPIFGTANYAQKFQGRVTITADKSTSTAYMELSSLRSEDTAVYYCAKGNFYGGLDYWGQGTTVTVSS
VL: DIQMTQSPSTLSASVGDRVTITCRASQSISSWLAWYQQKPGKAPKLLIYDASSLESGVPSRFSGSGSGTEFTLTISSLQPDDFATYYCQQNKKFPSGTFGQGTKVEIK
In the case of B1, the Kd [1] is reported as 6.5 nM, the Kd [2] is reported as 1.44 nM and the Kd [3] is reported as 6.69 nM.
